{"source": "patent US20100143940A1", "about": "“(3R)-HYDROXYACYL-ACP DEHYDRATASE ENZYMES USED IN THE BIOSYNTHESIS OF MYCOLIC ACIDS AND USE OF SAME FOR SCREENING ANTIBIOTICS” (priority 2007, published 2010)", "proteins": {"B1": {"name": "Rv0636 protein of M. tuberculosis H37Rv fused with the N-terminal polyhistidine tag (protein)", "chain": "HHHHHHMALREFSSVKVGDQLPEKTYPLTRQDLVNYAGVSGDLNPIHWDDEIAKVVGLDTAIAHGMLTMGIGGGYVTSWVGDPGAVTEYNVRFTAVVPVPNDGKGAELVFNGRVKSVDPESKSVTIALTATTGGKKIFGRAIASAKLA"}}, "target": "T1, 2-trans-octenoyl-ACP, P0A6A8", "T1 chain": "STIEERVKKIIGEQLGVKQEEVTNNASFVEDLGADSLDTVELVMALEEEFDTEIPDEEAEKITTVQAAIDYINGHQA"}
{"protein": "B1", "values": [{"measurement": "specific activity (hydration followed at 263 nm), 2 µM substrate, 311 nM enzyme", "result": "no activity of the Rv0636 homodimer could be detected in the presence of octenoyl-ACP"}]}
